Consider one substance from PMC4839367.

The target of this assay is Ad5D24 oncolytic adenovirus (viral particle, capsid) (human adenovirus serotype 5) (UniProt P04133). Kind of assay: SPR. (SPR reads the build-up and loss of mass on a sensor chip optically.)

The term Kd denotes the free concentration of one partner at which half of the binding sites on the other are occupied at equilibrium, for simple one-to-one binding.

Sequence of UniProt P04133 (P04133 whole entry, looked up): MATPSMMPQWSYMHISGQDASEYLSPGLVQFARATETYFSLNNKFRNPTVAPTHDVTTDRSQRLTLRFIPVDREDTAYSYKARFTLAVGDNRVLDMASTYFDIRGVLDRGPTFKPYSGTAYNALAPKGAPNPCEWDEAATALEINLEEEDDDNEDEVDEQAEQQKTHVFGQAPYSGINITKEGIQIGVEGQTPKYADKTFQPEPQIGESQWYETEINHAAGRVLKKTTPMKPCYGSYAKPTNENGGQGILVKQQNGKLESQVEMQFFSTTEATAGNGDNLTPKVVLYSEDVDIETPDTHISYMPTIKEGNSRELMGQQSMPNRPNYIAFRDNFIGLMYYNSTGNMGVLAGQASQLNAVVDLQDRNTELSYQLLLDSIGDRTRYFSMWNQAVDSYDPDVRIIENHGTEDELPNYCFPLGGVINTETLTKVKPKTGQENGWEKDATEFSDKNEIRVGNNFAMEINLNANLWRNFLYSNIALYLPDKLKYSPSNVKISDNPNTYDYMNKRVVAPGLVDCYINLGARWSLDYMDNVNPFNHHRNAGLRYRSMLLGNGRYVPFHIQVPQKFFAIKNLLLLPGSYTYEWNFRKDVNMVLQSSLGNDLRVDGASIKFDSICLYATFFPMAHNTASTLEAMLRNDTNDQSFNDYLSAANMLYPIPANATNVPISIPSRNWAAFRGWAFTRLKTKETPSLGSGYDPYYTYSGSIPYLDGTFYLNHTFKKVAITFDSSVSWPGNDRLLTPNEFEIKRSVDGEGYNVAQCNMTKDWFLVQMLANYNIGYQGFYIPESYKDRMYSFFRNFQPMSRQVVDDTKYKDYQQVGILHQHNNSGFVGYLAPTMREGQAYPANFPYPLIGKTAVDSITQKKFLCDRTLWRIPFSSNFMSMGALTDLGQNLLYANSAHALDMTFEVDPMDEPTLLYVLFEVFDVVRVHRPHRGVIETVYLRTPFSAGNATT

As to polyK-SIINFEKL (peptide), the Kd stood at 2880 nM.
